From US7001882B1, “Muteins of bilin-binding protein” (Pieris Proteolab AG, priority 1999, dated 2006)

Columns and labels:
Assay type in all cases: binding
[1] = Fluorescence titration of Bbp muteins with digitoxin; conditions: 1 μM mutein, PBS with 1 mM EDTA, 25° C., read-out: Kd, ligand digitoxin
Experimental: (§1) The ligand binding properties of muteins DigA, DigA16 and also of the recombinant bilin-binding protein (encoded by SEQ ID NO:16) were determined by means of the method of fluorescence titration. In this case, the decrease in intrinsic tyrosine and/or tryptophan fluorescence of the protein forming a complex with the ligand was measured. The measurements were carried out in a fluorimeter, type LS 50 B (Perkin Elmer) at an excitation wavelength of 295 nm (slit width 4 nm) and an emission wavelength of 345 nm (slit width 6 nm). The ligands used were digoxigenin (Fluka), digoxin (Fluka), digitoxigenin (Fluka), digitoxin (Fluka), testosterone (Sigma), ouabain (Fluka), and 4-aminofluorescein (Fluka).
(§2) The buffer system used was PBS with the addition of 1 mM EDTA. […] The concentration was determined by means of absorption at 280 nm using calculated extinction coefficients of 53580 M^−1 cm^−1 for DigA and DigA16 (Wisconsin Software Package, Genetics Computer Group). For Bbp, the calculated extinction coefficient of 54150 M^−1 cm^−1, corrected in the presence of guanidinium chloride according to Gill and von Hippel (Anal. Biochem. 182 (1989), 319–326) was used. […]
(§3) Here, F means the normalized fluorescence intensity and [L]t the total ligand concentration in the particular titration step. […]

[2] = Fluorescence titration of Bbp muteins with ouabain
Experimental: as §1, §2, §3

[3] = Sandwich ELISA detecting digoxigenin groups with DigA16-alkaline phosphatase fusion proteins; conditions: p-nitrophenyl phosphate hydrolysis, 405 nm, FIG. 3
Description: Here, the digoxigenin groups were coupled on the one hand to bovine serum albumin (BSA, squares) or, on the other hand, to chicken egg albumin (ovalbumin, triangles) The control data shown are those obtained when using underivatized bovine serum albumin and the fusion protein encoded by pBBP27 (open circles). The enzymatic activity corresponding to the particular bound fusion protein was monitored spectrophotometrically at 405 nm on the basis of p-nitrophenyl phosphate hydrolysis. Curve fitting was carried out by non-linear regression with the aid of the Kaleidagraph computer program (Abelbeck Software) by means of the equation [P·L]=[L]t[P]t/(Kd+[P]t)
Here, [P]t corresponds to the total fusion protein concentration used in the particular microtiter plate well. [P·L] is determined on the basis of the enzymatic activity of alkaline phosphatase. […]
For detecting digoxigenin groups in a sandwich ELISA, the wells in in each case two rows of a microtiter plate (ELISA strips, 2×8 well with high binding capacity, F-type, Greiner) were filled in each case with 100 μl of a 100 μg/ml solution of the BSA-digoxigenin conjugate or the ovalbumin-digoxigenin conjugate in PBS and incubated at RT overnight. […] The fusion proteins bound to the digoxigenin groups were finally detected by means of alkaline phosphatase-catalyzed hydrolysis of p-nitrophenyl phosphate. […]

[4] = Fluorescence titration of Bbp muteins with digoxin; conditions: 1 μM mutein, PBS with 1 mM EDTA, 25° C., read-out: Kd, ligand digoxin
Experimental: as §1, §2, §3

[5] = Fluorescence titration of Bbp muteins with digoxigenin
Experimental: as §1, §2, §3

[6] = Fluorescence titration of Bbp muteins with digitoxigenin
Experimental: as §1, §2, §3

[7] = Fluorescence titration of Bbp muteins with 4-aminofluorescein; conditions: 1 μM mutein, PBS with 1 mM EDTA, 25° C., read-out: Kd, ligand 4-aminofluroescein
Experimental: as §1, §2, §3

[8] = Fluorescence titration of Bbp muteins with testosterone; conditions: 1 μM mutein, PBS with 1 mM EDTA, 25° C., read-out: Kd, ligand testosterone
Experimental: as §1, §2, §3

B1: DigA16: affinity-improved mutein of the bilin-binding protein derived from DigA, encoded by SEQ ID NO:15 (polypeptide SEQ ID NO: 23) (protein)
chain: DVYHDGACPEVKPVDNFDWSQYHGKWWQVAAYPDHITKYGKCGWAEYTPEGKSVKVSRYSVIHGKEYFSEGTAYPVGDSKIGKIYHSYTIGGVTQEGVFNVLSTDNKNYIIGYFCSYDEDKKGHMDLVWVLSRSMVLTGEAKTAVENYLIGSPVVDSQKLVYSDFSEAACKVNN
Kd [1]: 2.7 ± 2 nM | Kd ([2]; 1 μM mutein, PBS with 1 mM EDTA, 25° C., read-out: Kd, ligand ouabain): > 10000 nM | binding of ouabain (FIG. 1, in words) ([2]; FIG. 1): no binding is observed | binding of the digoxigenin group as conjugate with BSA and with ovalbumin in ELISA (in words) [3]: context-independent | Kd [4]: 31.1 ± 3.2 nM | Kd ([5]; fluorescence titration, 1 μM mutein, PBS with 1 mM EDTA, 25° C., read-out: Kd, ligand digoxigenin): 30.2 ± 3.6 nM | Kd ([6]; 1 μM mutein, PBS with 1 mM EDTA, 25° C., read-out: Kd, ligand digitoxigenin): 2.8 ± 2.7 nM | binding of digitoxigenin compared with digoxigenin (FIG. 1, in words) ([6]; FIG. 1): bound even tighter than digoxigenin | Kd [7]: > 10000 nM | Kd [8]: > 10000 nM

B2: DigA: mutein of the bilin-binding protein selected for digoxigenin binding, SEQ ID NO:12 (amino acid sequence SEQ ID NO: 21) (protein)
chain: DVYHDGACPEVKPVDNFDWSQYHGKWWEVAKYPHHERKYGKCGWAEYTPEGKSVKVSRYSVIHGKEYFSEGTAYPVGDSKIGKIYHSYTIGGVTQEGVFNVLSTDNKNYIIGYFCSYDEDKKGHMDLVWVLSRSMVLTGEAKTAVENYLIGSPVVDSQKLVYSDFSEAACKVNN
Kd [4]: 200 ± 34 nM | Kd ([5]; determined according to Example 3, read-out: affinity between the mutein and digoxigenin): 295 ± 36 nM
